Experimental findings from paper PMC10841737 (Biochemistry, 2023) are described below.

Series [1] deals with T1, Cdc13 (Saccharomyces cerevisiae, UniProt P32797 1-924).
T1 sequence: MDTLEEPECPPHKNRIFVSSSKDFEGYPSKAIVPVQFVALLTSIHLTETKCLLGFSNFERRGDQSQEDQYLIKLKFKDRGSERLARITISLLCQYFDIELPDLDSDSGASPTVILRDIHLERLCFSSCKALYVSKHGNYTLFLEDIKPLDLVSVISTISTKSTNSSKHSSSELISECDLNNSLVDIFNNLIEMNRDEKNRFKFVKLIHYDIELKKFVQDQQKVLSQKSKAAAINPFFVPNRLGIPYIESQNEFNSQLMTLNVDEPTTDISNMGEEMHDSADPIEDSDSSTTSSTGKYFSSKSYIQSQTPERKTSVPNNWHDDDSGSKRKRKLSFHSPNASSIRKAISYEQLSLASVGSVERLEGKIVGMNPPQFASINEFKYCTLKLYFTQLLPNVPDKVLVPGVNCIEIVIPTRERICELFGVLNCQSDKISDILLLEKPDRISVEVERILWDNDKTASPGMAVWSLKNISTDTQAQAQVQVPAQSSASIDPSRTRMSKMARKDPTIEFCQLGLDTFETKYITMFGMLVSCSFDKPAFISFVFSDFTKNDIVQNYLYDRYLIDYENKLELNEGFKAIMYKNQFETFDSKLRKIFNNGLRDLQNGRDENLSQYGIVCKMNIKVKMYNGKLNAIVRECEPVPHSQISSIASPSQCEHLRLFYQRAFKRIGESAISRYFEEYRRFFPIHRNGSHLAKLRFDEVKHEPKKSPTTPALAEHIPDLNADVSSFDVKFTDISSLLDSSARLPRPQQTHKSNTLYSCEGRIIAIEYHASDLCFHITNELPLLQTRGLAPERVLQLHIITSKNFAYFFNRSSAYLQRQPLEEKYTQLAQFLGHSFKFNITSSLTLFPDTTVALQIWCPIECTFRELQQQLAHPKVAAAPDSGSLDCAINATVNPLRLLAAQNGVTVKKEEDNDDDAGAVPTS
Briefly: EMSA. In general terms: A gel shift assay detects complexes by their altered migration in electrophoresis.

For series [2], the target named is T2, Cy5-Sub1 (Sub1-Cys) (Saccharomyces cerevisiae, UniProt P54000 1-292+=C, internal_change).
T2 sequence: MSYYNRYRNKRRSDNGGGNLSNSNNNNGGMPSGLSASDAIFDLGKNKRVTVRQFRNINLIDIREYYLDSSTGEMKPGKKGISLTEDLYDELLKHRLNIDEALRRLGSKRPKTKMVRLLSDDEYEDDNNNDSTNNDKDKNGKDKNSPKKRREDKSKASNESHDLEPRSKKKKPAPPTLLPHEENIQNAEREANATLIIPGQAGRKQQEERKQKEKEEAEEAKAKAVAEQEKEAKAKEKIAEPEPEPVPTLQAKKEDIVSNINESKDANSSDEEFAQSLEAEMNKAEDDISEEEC
Briefly: stopped-flow FRET dissociation.

Series [3] deals with T1, Cdc13. The experiment in a line: EMSA. This is another data set of the same source.
For another series, the target named is T3, Sub1 (Saccharomyces cerevisiae, UniProt P54000 1-292).
T3 sequence: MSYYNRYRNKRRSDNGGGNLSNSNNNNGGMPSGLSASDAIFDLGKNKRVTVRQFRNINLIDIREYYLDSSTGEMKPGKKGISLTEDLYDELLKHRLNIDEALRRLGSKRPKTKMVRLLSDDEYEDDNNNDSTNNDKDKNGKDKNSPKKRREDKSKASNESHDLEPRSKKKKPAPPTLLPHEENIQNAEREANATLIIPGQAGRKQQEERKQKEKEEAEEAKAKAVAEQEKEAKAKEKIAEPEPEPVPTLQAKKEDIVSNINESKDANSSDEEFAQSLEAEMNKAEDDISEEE
Briefly: filter binding.

In series [4] the target is T2, Cy5-Sub1 (Sub1-Cys). The experiment in a line: filter binding.
Series [5] addresses T1, Cdc13. The experiment in a line: EMSA. This is another data set of the same source.
For series [6], the target named is T4, S. cerevisiae Pif1 helicase (S. cerevisiae, UniProt P07271 46-859).
T4 sequence (looked up): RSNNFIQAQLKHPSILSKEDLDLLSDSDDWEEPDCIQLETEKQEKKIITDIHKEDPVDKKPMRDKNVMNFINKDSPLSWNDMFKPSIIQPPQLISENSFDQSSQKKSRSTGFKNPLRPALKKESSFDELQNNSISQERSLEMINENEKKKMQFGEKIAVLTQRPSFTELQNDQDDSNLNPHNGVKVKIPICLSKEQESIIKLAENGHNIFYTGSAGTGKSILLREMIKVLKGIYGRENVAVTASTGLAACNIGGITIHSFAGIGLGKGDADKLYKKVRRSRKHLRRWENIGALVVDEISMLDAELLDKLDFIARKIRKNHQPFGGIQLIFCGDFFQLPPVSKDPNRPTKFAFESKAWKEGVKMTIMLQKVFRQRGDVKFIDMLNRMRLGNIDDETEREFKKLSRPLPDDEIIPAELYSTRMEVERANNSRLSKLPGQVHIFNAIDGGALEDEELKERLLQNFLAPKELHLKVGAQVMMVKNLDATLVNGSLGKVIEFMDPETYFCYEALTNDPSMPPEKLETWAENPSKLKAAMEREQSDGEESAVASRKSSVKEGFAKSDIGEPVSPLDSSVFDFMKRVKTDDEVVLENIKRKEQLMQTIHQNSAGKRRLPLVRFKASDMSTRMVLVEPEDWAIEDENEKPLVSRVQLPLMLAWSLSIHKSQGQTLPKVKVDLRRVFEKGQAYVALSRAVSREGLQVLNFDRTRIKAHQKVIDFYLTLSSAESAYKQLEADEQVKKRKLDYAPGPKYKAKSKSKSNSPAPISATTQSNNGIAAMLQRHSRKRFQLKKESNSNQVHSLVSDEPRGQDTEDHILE
Briefly: fluorescence polarisation.

In series [7] the target is T1, Cdc13. The experiment in a line: EMSA. This is another data set of the same source.

Like-named read-outs stand apart in the source and are kept apart here.

CTGTGGGTGTG (ssDNA) [Tel11 (G1C)]: the “apparent K (half saturation)” value with Cdc13 [1] was found to be 150 ± 14.7 nM.

For TTTTTTTTTTTTTTGAGGGTGGGTAGGGTGGGT (structured_DNA) [Cy3-G4 DNA], the binding result with Cy5-Sub1 (Sub1-Cys) [2] is reported as “binds”.

For the molecule CGCTGATGTCGC (ssDNA) [12 nt Mixed seq], the “apparent K (half saturation)” value in the series with Cdc13 [3] amounted to 124 ± 8.8 nM. What is called Kd is the free concentration of one partner at which half of the binding sites on the other are occupied at equilibrium, for simple one-to-one binding. Regarding TTTTTTTTTTTTTTTGAGGGTGGGTAGGGTGGGTAA (structured_DNA) [G4DNA], the Kd was found to be 0.86 ± 0.18 nM with Sub1 and 2.9 ± 1.3 nM with Cy5-Sub1 (Sub1-Cys) [4].

Take GTGTGGGTGTG (ssDNA) [Tel11 telomere seq]: the “apparent K (half saturation)” value with Cdc13 [5] amounted to 15.3 ± 0.9 nM.

B1: Cy5-labeled Sub1 (Sub1-Cys variant labeled with Cy5-maleimide) (natural protein, yeast (S. cerevisiae), UniProt P54000 1-292, looked up)
chain: T2 sequence
modifications: Cy5 (maleimide) on the cysteine added at the C-terminal end; one molecule of Cy5 dye per protein
For the molecule B1, the Kd in series [6] stood at 53 nM. GTGTGGCTCTG (ssDNA) [Tel11 (G7C/G9C)]: in the series with Cdc13 [7], the “apparent K (half saturation)” value is 96.7 ± 3 nM.
